Measured values: PMC9249833

Biological target: HisTmod (His-tagged recombinant AjTmod) (Apostichopus japonicus)
Experiment: MST; Monolith NT.115; His-tagged AjTmod labelled with NT-647-NHS (about 5 uM), 16 serial concentrations of the unlabelled partner; 50 mM Tris-HCl pH 8.0, 0.02% Tween 20; 25 °C; three repeats

“GSTFliC fusion protein (GST-fused Vibrio splendidus AJ01 flagellin C) (natural protein)” was tested, and the Kd was 8.6 nM.
